B1: G glycoprotein: purified G glycoprotein isolated from RSV/A2-infected Vero cells (protein)
chain: MSKNKDQRTAKTLERTWDTLNHLLFISSCLYKLNLKSVAQITLSILAMIISTSLIIAAIIFIASANHKVTPTTAIIQDATSQIKNTTPTYLTQNPQLGISPSNPSEITSQITTILASTTPGVKSTLQSTTVKTKNTTTTQTQPSKPTTKQRQNKPPSKPNNDFHFEVFNFVPCSICSNNPTCWAICKRIPNKKPGKKTTTKPTKKPTLKTTKKDPKPQTTKSKEVPTTKPTEEPTINTTKTNIITTLLTSNTTGNPELTSQMETFHSTSSEGNPSPSQVSTTSEYPSQPSSPPNTPRQ

System: 293 cells
Experiment: G glycoprotein and Fkn binding to untransfected 293 control cells by flow cytometry
Parameters: species or system human
Details: for percent positive staining of 293 cells: 10 nM ligand, representative experiment, FIG. 1
Description: Purified G glycoprotein was examined for binding to 293-CX3CR1 cells^33. A pcDNA 3.1 plasmid containing the CX3CR1 gene and a neomycin resistance gene was used to stably transfect human embryonic kidney (HEK) cells. Neomycin resistance was used for selection and maintenance of plasmid transfection of human embryonic kidney cells.
All binding studies were done on ice and either G glycoprotein or human Fkn (R&D Diagnostics, Minneapolis, Minn.) were diluted between 1 nM-100 nM in PBS (GIBCO) containing 1% bovine serum albumin (Sigma) and incubated with the 293-CX3CR1 cells or 293 control cells for 30 min at 4° C. […] For inhibition studies, 100 pM-1 μM human Fkn or G glycoprotein was preincubated with the cells for 30 min at 4° C. Without washing, 100 pM of either Fkn or G glycoprotein was added and incubated for 30 min at 4° C. The cells were washed, blocked with FcγRIII blocking antibody (HB197) for 30 min on ice, washed and stained as appropriate with either an anti-G glycoprotein monoclonal antibody cocktail (132-5B, 132-5G, 130-2G, 232-IF) or a biotinylated anti-G glycoprotein monoclonal antibody cocktail (130-2G, 131-2G) or anti-Fkn monoclonal antibody (51637.11; R&D Diagnostics). Concentrations of 1 μg of anti-G glycoprotein monoclonal antibody (131-2G)^34, rabbit anti-CX3CR1 sera^33, and anti-CX3CR1 monoclonal antibody containing 10 μg/ml heparin were used in all experiments. […] Staining was detected with absorbed FITC-goat anti-mouse (H & L chain) monoclonal antibody (PharMingen, San Diego, Calif.) or streptavidin-PE (PharMingen) using flow cytometry (FACScan, Becton-Dickinson, Mountain View, Calif.). A 76 amino acid ^125I-Fkn polypeptide comprising the […] (NEN, Boston, Mass.) was used in radioligand studies^33. As a control, the void volume following purified G glycoprotein passaged over an anti-G glycoprotein antibody (130-2G) affinity column was examined by flow cytometry for binding to either 293 or 293-CX3CR1 cells.
The receptor for Fkn, CX3CR1, was previously identified and characterized using anti-CX3CR1 rabbit antiserum and CX3CR1-transfected human embryonic kidney cells (293-CX3CR1 cells)^33.

Molecule | percent positive staining of 293 cells [%] | binding to 293 cells (wheat germ lectin column fraction (G, F glycoprotein) or purified recombinant polyhistidine-tagged G glycoprotein) [%]
Fkn: CX3C chemokine fractalkine (R&D), ligand of CX3CR1 [reference compound] | 8 | –
B1 | 16 | 18

— patent publication US8173131B2, “Compositions and methods for modulating RSV infection and immunity” (PerkinElmer Health Sciences, Inc., priority 2000, dated 2012)
